Test results from the supplement of paper PMC7125110.
± gives the standard error. This sample holds only a part of the variants without activity.

B1: glmS ribozyme (parent)
chain: AUAAAAGCGCCAGAACUACAGAAAUGUAGUUGACGAGGAGGAGGUUUAUCGAAUUUUCGGCGGAUGCCUCCAAA

How the values were obtained:
Settings in all cases: with glucosamine-6-phosphate
glucosamine-6-phosphate [1] = variants of: B1; test: self-cleavage kobs at 40 uM GlcN6P; higher = faster cleavage; RNA array
Summary of the method: (§1)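 Using a hybridised Cy3 probe at 37 °C, barcoded ribozyme variants transcribed in situ by E. coli RNA polymerase on sequenced MiSeq chips were monitored across tiles imaged over ~14 h. The flow contained glucosamine-6-phosphate from 40 μM to 10 mM in HEPES/KCl/Mg(OAc)2 buffer. Signals were normalised to baseline and to non-cleaving reference variants before per-tile medians were fit to one- or two-exponential decays to yield kobs. Weighted Michaelis–Menten fits across concentrations gave kcat and KM.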

glucosamine-6-phosphate [2] = variants of: B1; test: self-cleavage kobs at 2500 uM GlcN6P; higher = faster cleavage; RNA array
Summary of the method: as §1

glucosamine-6-phosphate [3] = variants of: B1; test: self-cleavage kobs at 640 uM GlcN6P; higher = faster cleavage; RNA array
Summary of the method: as §1

glucosamine-6-phosphate [4] = variants of: B1; test: self-cleavage kobs at 10000 uM GlcN6P; higher = faster cleavage; RNA array
Summary of the method: as §1

glucosamine-6-phosphate [5] = variants of: B1; test: self-cleavage kobs at 160 uM GlcN6P; higher = faster cleavage; RNA array
Summary of the method: as §1

Variant	self-cleavage kobs at 40 uM GlcN6P (glucosamine-6-phosphate [1])	self-cleavage kobs at 2500 uM GlcN6P (glucosamine-6-phosphate [2])	self-cleavage kobs at 640 uM GlcN6P (glucosamine-6-phosphate [3])	self-cleavage kobs at 10000 uM GlcN6P (glucosamine-6-phosphate [4])	self-cleavage kobs at 160 uM GlcN6P (glucosamine-6-phosphate [5])
AUAAAAGCGCCAGAACUACAGAAAUGUAGUUGACGACCAUGAGGUUUAUCGAAUAUUCGGCGGAUGCCUCCAAA [G37C G38C G40U U55A]	< 1e-05 s⁻¹	< 1e-05 s⁻¹			
AUAAAAGCGCCAGAACUACAGAAAUGUAGUUGACGAAGAGGAGGCUUAUCGAAUUUUUGGGGGAUGCCUCCAAA [G37A U45C C58U C61G]	< 1e-05 s⁻¹				
AUAAAAGCGCCAGAACUACAGAAAUGUAGUUGACGACGAGGAGGUUUUUCGAAUUUGCGGCGGAUGCCUCCAAA [G37C A48U U57G]	< 1e-05 s⁻¹	< 1e-05 s⁻¹	< 1e-05 s⁻¹		
AUAAAAGCGCCAGAACUACAGAAAUGUAGUUGACGAUGAUGAGGCUUAUCGAAUUUUCGGCGGAUGCCUCCAAA [G37U G40U U45C]	< 1e-05 s⁻¹			< 1e-05 s⁻¹	
AUAAAAGCGCCAGAACUACAGAAAUGUAGUUGACGAGAAGGUGUUUUGUCGAAUUUUCGGCGGAUGCCUCCAAA [G38A A42U G44U A48G]	< 1e-05 s⁻¹				
AUAAAAGCGCCAGAACUACAGAAAUGUAGUUGACGAUGAGCAGGUUUAUCGAAUUUUCGGCGGAUGACUCCAAA [G37U G41C C67A]	< 1e-05 s⁻¹				
AUAAAAGCGCCAGAACUACAGAAAUGUAGUUGACGACGAGUAGGUUUAUCGAAUUUUCGGCGCAUGCCUCCAAA [G37C G41U G63C]	< 1e-05 s⁻¹				
AUAAAAGCGCCAGAACUACAGAAAUGUAGUUGACGAGAAAGAGGUUUAUCGAAUUUUCGGCGGAUGCCUCCAAA [G38A G40A]	< 1e-05 s⁻¹	< 1e-05 s⁻¹	< 1e-05 s⁻¹	< 1e-05 s⁻¹	< 1e-05 s⁻¹
AUAAAAGCGCCAGAACUACAGAAAUGUAGUUGACGAUGUGGAGGGUUAUCAAAUUUUCAGCGGAUGCCUCCAAA [G37U A39U U45G G51A G59A]	< 1e-05 s⁻¹				
AUAAAAGCGCCAGAACUACAGAAAUGUAGUUGACGACGAGGUGGUUUAUCGAAUUUUCGGCGGAUGCCUACAAA [G37C A42U C70A]	< 1e-05 s⁻¹				
AUAAAAGCGCCAGAACUACAGAAAUGUAGUUGACGACGAGGAGGUUUUUCGAAUUUUCGGCGGAUGCCUCCAAA [G37C A48U]	< 1e-05 s⁻¹			< 1e-05 s⁻¹	
AUAAAAGCGCCAGAACUACAGAAAUGUAGUUGACGACGAGGAGGUUUAUUGAAUUUUCGGCGGAUUCCUCCAAA [G37C C50U G66U]	< 1e-05 s⁻¹			< 1e-05 s⁻¹	
AUAAAAGCGCCAGAACUACAGAAAUGUAGUUGACGAUGACGAGGUUUAUCGAAUUUUCGGCGGUUGCCUCCAAA [G37U G40C A64U]	< 1e-05 s⁻¹			< 1e-05 s⁻¹	
AUAAAAGCGCCAGAACUACAGAAAUGUAGUUGACGACAAGGAGGUUUAUCGAAUUUUCGGCGGAUGCCUCCAAA [G37C G38A]	< 1e-05 s⁻¹			< 1e-05 s⁻¹	< 1e-05 s⁻¹
AUAAAAGCGCCAGAACUACAGAAAUGUAGUUGACGAGAAGGAGGUUUAUCGAAUUUUUUGCGGAUGCCUCCAAA [G38A C58U G59U]	< 1e-05 s⁻¹			< 1e-05 s⁻¹	
AUAAAAGCGCCAGAACUACAGAAAUGUAGUUGACGACGAGGAGGUUUAUCGAAUUUUCGGCCGAUGCCUCCAAA [G37C G62C]	< 1e-05 s⁻¹		< 1e-05 s⁻¹	< 1e-05 s⁻¹	
AUAAAAGCGCCAGAACUACAGAAAUGUAGUUGACGAAGAGGAGGUUUAUCGAAUUAUCGGCGGAUGCCUCCAAA [G37A U56A]	1.92e-05 ± 6.8e-06 s⁻¹			0.000962 ± 0.00011 s⁻¹	4.84e-05 ± 1.8e-05 s⁻¹
AUAAAAGCGCCAGAACUACAGAAAUGUAGUUGACGAGAAGGAGGUUUAUCGAAUUUUUGGCGGAUGCCCCCAAA [G38A C58U U69C]	< 1e-05 s⁻¹			< 1e-05 s⁻¹	
